{"source": "paper PMC7706287", "about": "“Targeting the myeloid checkpoint receptor SIRPα potentiates innate and adaptive immune responses to promote anti-tumor activity” (Journal of Hematology & Oncology, 2020)", "binders": {"B1": {"name": "hAB21 anti-SIRPα Fab (Fab, V domains shown)", "VH": "DVQLVESGGGVVRPGESLRLSCEASGFTFSSNAMSWVRQAPGKGLEWVAGISSGSDTYYGDSVKGRLTISRDNSKNILYLQMNSLTAEDTAVYYCARETWNHLFDYWGQGTLVTVSS", "VL": "ELTQPPSVSVSPGQTARITCSGGSYSSYYYAWYQQKPGQAPVTLIYSDDKRPSNIPERFSGSSSGTTVTLTITGVQAEDEADYYCGGYDQSSYTNPFGGGTKLTVL", "notes": "Fab heavy chain; Fab light chain (humanized lambda); also called hAB21 Fab; Fab version of the antibody"}}, "molecular_target": "T1, Ig-V domain of human SIRPα V1 (crystallography construct) (human, UniProt P78324-1)", "T1 construct": "Signal regulatory protein α, human, allele v1, IgV domain as crystallised; also called IgV domain of SIRPα v1", "T1 sequence (P78324 33-147)": "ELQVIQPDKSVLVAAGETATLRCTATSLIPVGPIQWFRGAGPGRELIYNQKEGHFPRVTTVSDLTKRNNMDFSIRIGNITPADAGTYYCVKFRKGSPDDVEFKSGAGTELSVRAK", "experiment": "crystal structure; Fab-SIRPα V1 complex at 11.3 mg/mL in 10 mM Tris pH 7.4, 50 mM NaCl; sitting drop, 0.1 M sodium acetate pH 4.0, 0.2 M ammonium sulfate, 18% PEG 4000; 2.27 Angstroms", "settings": "both partners purified"}
{"binder": "B1", "values": [{"measurement": "binding result", "value": "binds"}]}
